Test results: publication PMC8236860, “Regulation of Dual Activity of Ascorbate Peroxidase 1 From Arabidopsis thaliana by Conformational Changes and Posttranslational Modifications” (Frontiers in Plant Science, 2021)

B1: Cytosol type APX1 from Arabidopsis thaliana (AtAPX1), recombinant (enzyme, UniProt Q05431 1-250, looked up)
chain: MTKNYPTVSEDYKKAVEKCRRKLRGLIAEKNCAPIMVRLAWHSAGTFDCQSRTGGPFGTMRFDAEQAHGANSGIHIALRLLDPIREQFPTISFADFHQLAGVVAVEVTGGPDIPFHPGREDKPQPPPEGRLPDATKGCDHLRDVFAKQMGLSDKDIVALSGAHTLGRCHKDRSGFEGAWTSNPLIFDNSYFKELLSGEKEGLLQLVSDKALLDDPVFRPLVEKYAADEDAFFADYAEAHMKLSELGFADA
notes: Ascorbate peroxidase 1, cytosolic (AtAPX1), Arabidopsis thaliana; 27 kDa on SDS-PAGE; Heme enzyme; also called ascorbate peroxidase 1; recombinant AtAPX1 protein; source: E. coli BL21 (DE3), pET28a, purified (Ni-NTA, thrombin cleavage of the His-tag, SEC)
B2: S-nitrosylated recombinant AtAPX1 (GSNO-treated) (enzyme, Arabidopsis thaliana, UniProt Q05431 1-250, looked up)
chain: B1 chain
modifications: S-nitrosylation of cysteine (GSNO treatment); positions not determined in this paper
notes: Ascorbate peroxidase 1, cytosolic (AtAPX1), Arabidopsis thaliana; same construct as m1; not mapped here; also called S-nitrosylated APX1; GSNO-treated AtAPX1; source: E. coli BL21 (DE3), purified, then incubated with GSNO (0-1 mM) at 25°C for 30 min in the dark
B3: S-sulfhydrated recombinant AtAPX1 (NaHS-treated) (enzyme, Arabidopsis thaliana, UniProt Q05431 1-250, looked up)
chain: B1 chain
modifications: S-sulfhydration of cysteine (NaHS treatment); positions not determined in this paper
notes: Ascorbate peroxidase 1, cytosolic (AtAPX1), Arabidopsis thaliana; same construct as m1; not mapped here; also called NaHS-treated AtAPX1; source: E. coli BL21 (DE3), purified, then incubated with NaHS (10 nM-100 μM) at 4°C for 30 min in the dark
B4: Tyrosine-nitrated recombinant AtAPX1 (SIN-1-treated) (enzyme, Arabidopsis thaliana, UniProt Q05431 1-250, looked up)
chain: B1 chain
modifications: tyrosine nitration (SIN-1 treatment); positions not determined in this paper
notes: Ascorbate peroxidase 1, cytosolic (AtAPX1), Arabidopsis thaliana; same construct as m1; also called SIN-1-treated protein; source: E. coli BL21 (DE3), purified, then incubated with SIN-1 (0-10 mM) at 37°C for 1 h in the dark

Biological target: the molecule itself
Assay: native gel or EMSA; 10% native-PAGE of purified recombinant AtAPX1 (total protein, SEC fractions F1-F3, and protein treated with GSNO, NaHS or SIN-1)

Protein | stoichiometry N | binding result
B1 | 2 | –
B2 | – | binds
B3 | – | binds
B4 | – | binds
